B1: Transcription factor 12 (Homo sapiens), Q99081 (parent)
chain: MNPQQQRMAAIGTDKELSDLLDFSAMFSPPVNSGKTRPTTLGSSQFSGSGIDERGGTTSWGTSGQPSPSYDSSRGFTDSPHYSDHLNDSRLGAHEGLSPTPFMNSNLMGKTSERGSFSLYSRDTGLPGCQSSLLRQDLGLGSPAQLSSSGKPGTAYYSFSATSSRRRPLHDSAALDPLQAKKVRKVPPGLPSSVYAPSPNSDDFNRESPSYPSPKPPTSMFASTFFMQDGTHNSSDLWSSSNGMSQPGFGGILGTSTSHMSQSSSYGNLHSHDRLSYPPHSVSPTDINTSLPPMSSFHRGSTSSSPYVAASHTPPINGSDSILGTRGNAAGSSQTGDALGKALASIYSPDHTSSSFPSNPSTPVGSPSPLTGTSQWPRPGGQAPSSPSYENSLHSLQSRMEDRLDRLDDAIHVLRNHAVGPSTSLPAGHSDIHSLLGPSHNAPIGSLNSNYGGSSLVASSRSASMVGTHREDSVSLNGNHSVLSSTVTTSSTDLNHKTQENYRGGLQSQSGTVVTTEIKTENKEKDENLHEPPSSDDMKSDDESSQKDIKVSSRGRTSSTNEDEDLNPEQKIEREKERRMANNARERLRVRDINEAFKELGRMCQLHLKSEKPQTKLLILHQAVAVILSLEQQVRERNLNPKAACLKRREEEKVSAVSAEPPTTLPGTHPGLSETTNPMGHM
partner: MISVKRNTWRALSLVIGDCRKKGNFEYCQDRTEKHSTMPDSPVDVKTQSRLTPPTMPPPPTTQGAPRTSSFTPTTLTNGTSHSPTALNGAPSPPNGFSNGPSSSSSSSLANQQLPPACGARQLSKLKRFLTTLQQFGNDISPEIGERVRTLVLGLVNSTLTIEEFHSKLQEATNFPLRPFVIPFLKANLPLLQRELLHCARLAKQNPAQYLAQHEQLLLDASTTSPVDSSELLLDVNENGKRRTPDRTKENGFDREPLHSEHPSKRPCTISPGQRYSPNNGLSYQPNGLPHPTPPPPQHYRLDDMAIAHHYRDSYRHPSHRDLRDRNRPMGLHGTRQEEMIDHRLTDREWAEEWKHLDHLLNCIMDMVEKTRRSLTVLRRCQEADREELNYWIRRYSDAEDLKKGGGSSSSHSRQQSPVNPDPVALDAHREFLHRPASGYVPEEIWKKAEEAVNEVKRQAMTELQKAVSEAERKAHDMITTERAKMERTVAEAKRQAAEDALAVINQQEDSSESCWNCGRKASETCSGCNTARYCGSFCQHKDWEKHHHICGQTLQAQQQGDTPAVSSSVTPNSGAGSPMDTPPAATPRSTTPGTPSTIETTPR
B2: ATP synthase mitochondrial F1 complex assembly factor 2 (Homo sapiens), Q8N5M1 (parent)
chain: MWRSCLRLRDGGRRLLNRPAGGPSASMSPGPTIPSPARAYAPPTERKRFYQNVSITQGEGGFEINLDHRKLKTPQAKLFTVPSEALAIAVATEWDSQQDTIKYYTMHLTTLCNTSLDNPTQRNKDQLIRAAVKFLDTDTICYRVEEPETLVELQRNEWDPIIEWAEKRYGVEISSSTSIMGPSIPAKTREVLVSHLASYNTWALQGIEFVAAQLKSMVLTLGLIDLRLTVEQAVLLSRLEEEYQIQKWGNIEWAHDYELQELRARTAAGTLFIHLCSESTTVKHKLLKE
partner: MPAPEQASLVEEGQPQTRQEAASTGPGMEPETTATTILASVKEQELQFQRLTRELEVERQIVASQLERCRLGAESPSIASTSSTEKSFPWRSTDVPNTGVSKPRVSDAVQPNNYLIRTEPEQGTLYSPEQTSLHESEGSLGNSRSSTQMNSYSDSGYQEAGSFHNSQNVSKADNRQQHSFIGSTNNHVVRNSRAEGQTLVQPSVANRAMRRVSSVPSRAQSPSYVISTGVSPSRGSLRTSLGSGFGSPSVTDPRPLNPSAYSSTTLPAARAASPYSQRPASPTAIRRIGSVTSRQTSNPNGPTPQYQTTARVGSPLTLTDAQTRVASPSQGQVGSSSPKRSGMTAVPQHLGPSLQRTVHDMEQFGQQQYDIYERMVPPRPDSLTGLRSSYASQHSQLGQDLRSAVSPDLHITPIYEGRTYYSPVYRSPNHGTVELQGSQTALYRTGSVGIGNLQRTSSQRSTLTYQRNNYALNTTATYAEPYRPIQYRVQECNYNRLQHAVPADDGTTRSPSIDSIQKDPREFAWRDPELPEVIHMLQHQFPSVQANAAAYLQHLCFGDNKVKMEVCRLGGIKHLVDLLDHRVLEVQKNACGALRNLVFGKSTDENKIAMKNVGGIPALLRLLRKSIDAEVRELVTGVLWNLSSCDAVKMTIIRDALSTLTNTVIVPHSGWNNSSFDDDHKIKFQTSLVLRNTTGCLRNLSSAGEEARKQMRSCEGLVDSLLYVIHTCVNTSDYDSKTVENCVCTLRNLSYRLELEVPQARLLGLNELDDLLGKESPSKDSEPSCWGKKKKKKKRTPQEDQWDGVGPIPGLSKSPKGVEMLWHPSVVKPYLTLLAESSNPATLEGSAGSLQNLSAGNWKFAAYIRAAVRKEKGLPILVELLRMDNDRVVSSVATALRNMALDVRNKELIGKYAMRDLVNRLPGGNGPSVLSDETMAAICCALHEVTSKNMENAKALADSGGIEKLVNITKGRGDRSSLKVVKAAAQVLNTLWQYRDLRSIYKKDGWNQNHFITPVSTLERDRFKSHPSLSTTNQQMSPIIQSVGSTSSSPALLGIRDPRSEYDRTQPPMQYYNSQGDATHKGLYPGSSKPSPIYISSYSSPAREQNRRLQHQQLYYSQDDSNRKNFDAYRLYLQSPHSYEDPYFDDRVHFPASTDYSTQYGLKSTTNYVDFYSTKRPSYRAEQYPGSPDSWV
B3: Putative RNA-binding protein Luc7-like 2 (Homo sapiens), Q9Y383 (parent)
chain: MSAQAQMRAMLDQLMGTSRDGDTTRQRIKFSDDRVCKSHLLNCCPHDVLSGTRMDLGECLKVHDLALRADYEIASKEQDFFFELDAMDHLQSFIADCDRRTEVAKKRLAETQEEISAEVAAKAERVHELNEEIGKLLAKVEQLGAEGNVEESQKVMDEVEKARAKKREAEEVYRNSMPASSFQQQKLRVCEVCSAYLGLHDNDRRLADHFGGKLHLGFIEIREKLEELKRVVAEKQEKRNQERLKRREEREREEREKLRRSRSHSKNPKRSRSREHRRHRSRSMSRERKRRTRSKSREKRHRHRSRSSSRSRSRSHQRSRHSSRDRSRERSKRRSSKERFRDQDLASCDRDRSSRDRSPRDRDRKDKKRSYESANGRSEDRRSSEEREAGEI
partner: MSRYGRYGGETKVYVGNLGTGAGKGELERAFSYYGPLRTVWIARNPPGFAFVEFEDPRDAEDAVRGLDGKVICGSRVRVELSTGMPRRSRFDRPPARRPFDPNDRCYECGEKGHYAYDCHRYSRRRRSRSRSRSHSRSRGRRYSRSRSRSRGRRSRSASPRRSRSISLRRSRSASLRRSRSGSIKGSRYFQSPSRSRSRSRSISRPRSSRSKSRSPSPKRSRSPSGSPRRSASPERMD
B4: Ubiquitin-conjugating enzyme E2 E3 (Homo sapiens), Q969T4 (parent)
chain: MSSDRQRSDDESPSTSSGSSDADQRDPAAPEPEEQEERKPSATQQKKNTKLSSKTTAKLSTSAKRIQKELAEITLDPPPNCSAGPKGDNIYEWRSTILGPPGSVYEGGVFFLDITFSSDYPFKPPKVTFRTRIYHCNINSQGVICLDILKDNWSPALTISKVLLSICSLLTDCNPADPLVGSIATQYLTNRAEHDRIARQWTKRYAT
B5: Zinc finger CCHC domain-containing protein 10 (Homo sapiens), Q8TBK6 (parent)
chain: MATPMHRLIARRQAFDTELQPVKTFWILIQPSIVISEANKQHVRCQKCLEFGHWTYECTGKRKYLHRPSRTAELKKALKEKENRLLLQQSIGETNVERKAKKKRSKSVTSSSSSSSDSSASDSSSESEETSTSSSSEDSDTDESSSSSSSSASSTTSSSSSDSDSDSSSSSSSSTSTDSSSDDEPPKKKKKK
partner: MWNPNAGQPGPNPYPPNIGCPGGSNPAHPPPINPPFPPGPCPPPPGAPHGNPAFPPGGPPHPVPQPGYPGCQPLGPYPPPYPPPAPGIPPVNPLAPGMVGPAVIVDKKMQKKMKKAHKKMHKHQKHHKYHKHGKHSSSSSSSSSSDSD
B6: U3 small nucleolar RNA-associated protein 14 homolog C (Homo sapiens), Q5TAP6 (parent)
chain: MNVNQVAENLALSHQEELVDLPKNYPLSENEDEGDSDGERKHQKLLEAIISLDGKNRRKLAERSEASLKVSEFSVSSEGSGEKLGLADLLEPVKTSSSLATVKKQLNRVKSKKVVELPLNKEKIEQIHREVAFSKTSQVLSKWDPIILKNQQAEQLVFPLGKEQPAIAPIEHALSGWKARTPLEQEIFNLLHKNKQPVTDPLLTPMEKASLQAMSLEEAKMHRAELQRARALQSYYEAKARKEKKIKSKKYHKVVKKGKAKKALKEFEQLQKVNPTVALEEMEKIENARMMERMSLKHQNSGKWAKSKAIMAKYDLEARQAMQEQLAKNKELTQKLQVASESEEEEGGTEVEELLVPHVANEVQMNVDGPNPWMFRSCTSDTKEAATQEDPEQVPELAAHEVSASEAEERPVAEEEILLREFEERQSLRKRSELNQDAEPASSQETKDSSSQEVLSELRALSQKLKEKHQSRKQKASSEGTVPQVQREEPAPEEAEPLLLQRSERVQTLEELEELGKEDCFQNKELPRPVLEGQQSERTPNNRPDAPKEKKEKEQLINLQNFLTTQSPSVRSLAVPTIIEELEDEEERDQRQMIKEAFAGDDVIRDFLKEKREAVEASKPKDVDLTLPGWGEWGGVGLKPSAKKRRQFLIKAPEGPPRKDKNLPNVIISEKRNIHAAAHQVQVLPYPFTHHRQFERTIQTPIGSTWNTQRAFQKLTTPKVVTKPGHIIKPIKAEDVGYQSSSRSDLPVIQRNPKRITTRHNKEEKL
partner: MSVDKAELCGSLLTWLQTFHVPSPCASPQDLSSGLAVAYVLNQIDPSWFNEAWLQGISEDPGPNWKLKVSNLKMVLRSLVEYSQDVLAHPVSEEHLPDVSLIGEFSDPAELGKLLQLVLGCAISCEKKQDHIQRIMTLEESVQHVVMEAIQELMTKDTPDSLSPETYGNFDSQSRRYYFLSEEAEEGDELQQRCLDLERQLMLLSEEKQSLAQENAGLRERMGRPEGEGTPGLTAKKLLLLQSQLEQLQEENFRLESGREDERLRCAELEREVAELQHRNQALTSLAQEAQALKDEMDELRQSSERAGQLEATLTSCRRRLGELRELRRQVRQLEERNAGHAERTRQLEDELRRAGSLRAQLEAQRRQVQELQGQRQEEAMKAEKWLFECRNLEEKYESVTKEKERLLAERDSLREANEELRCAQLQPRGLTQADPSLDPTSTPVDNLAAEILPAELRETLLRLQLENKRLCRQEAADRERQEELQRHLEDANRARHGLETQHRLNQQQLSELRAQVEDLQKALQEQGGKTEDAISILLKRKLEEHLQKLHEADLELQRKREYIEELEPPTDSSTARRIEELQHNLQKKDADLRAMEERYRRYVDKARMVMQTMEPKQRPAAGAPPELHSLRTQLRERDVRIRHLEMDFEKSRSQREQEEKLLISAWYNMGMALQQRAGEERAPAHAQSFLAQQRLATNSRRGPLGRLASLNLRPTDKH

Variants of: B1
Details: with mtg8_human RUNX1T1, Q06455

Row | Variant | effect of a mutation on the interaction
1 | G300S | with no effect
2 | V31A | with no effect

Variants of: B2
Details: with pkp4_human PKP4, Q99569

Row | Variant | effect of a mutation on the interaction
3 | E241G | with no effect

Variants of: B3
Details: with srsf7_human SRSF7, Q16629

Row | Variant | effect of a mutation on the interaction
4 | K368Q | with no effect

Variants of: B4
Details: with rnf5_human RNF5, Q99942
Chain of rnf5_human RNF5, Q99942 (Q99942 whole entry): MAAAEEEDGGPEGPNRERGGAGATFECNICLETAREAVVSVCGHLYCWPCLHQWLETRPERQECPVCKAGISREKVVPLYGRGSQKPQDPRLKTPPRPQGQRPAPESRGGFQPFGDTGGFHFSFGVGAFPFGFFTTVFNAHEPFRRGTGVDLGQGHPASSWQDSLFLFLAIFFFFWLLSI

Row | Variant | effect of a mutation on the interaction
5 | S117T | with no effect

Variants of: B5
Details: with prr13_human PRR13, Q9NZ81

Row | Variant | effect of a mutation on the interaction
6 | S153P | with no effect

Variants of: B6
Details: with hook2_human HOOK2, Q96ED9

Row | effect of a mutation on the interaction | Variant
7 | with no effect | R319H
8 | with no effect | R672H

The next lines start with the variant.

Row | Variant | effect of a mutation on the interaction
9 | K247E | with no effect
10 | I170V | with no effect
11 | G85V | with no effect

Source: IntAct's records for PubMed 31515488
